Experimental data as given in patent US20220380471A1 (US Dept. of Health and Human Services, published 2022).

Experiments:
mouse B7H3-His = target: T1, mouse B7H3-His (mouse, UniProt Q8VE98 29-244, limits assumed); assay: phage ELISA, cross-species
T1 construct: also called recombinant mouse B7H3-His protein; not shown: His tag
T1 sequence (looked up): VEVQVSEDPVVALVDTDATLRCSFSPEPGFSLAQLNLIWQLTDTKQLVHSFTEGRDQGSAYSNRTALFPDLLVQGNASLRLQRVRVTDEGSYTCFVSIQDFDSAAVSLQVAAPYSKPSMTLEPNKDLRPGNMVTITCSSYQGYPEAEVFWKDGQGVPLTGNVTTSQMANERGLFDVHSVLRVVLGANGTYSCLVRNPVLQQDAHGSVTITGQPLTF
Outline: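 Libraries from eight individual camels supplied the camel VHH phage, which were panned on recombinant B7H3-Fc protein for 3 rounds. Phage ELISA then measured how the selected phage bound to immobilised antigens, namely human and other-species B7H3 or control proteins, with the ELISA signal as the recorded value.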

[1] = target: T2, recombinant human B7H3-Fc protein (human, UniProt Q5ZPR3 29-466, limits assumed); assay: BLI (Octet), human B7H3-Fc; same value printed for 660, 528, 264, 198, 66 and 33 nM
T2 construct: 154 kDa non-reduced, 77 kDa reduced; also called hB7H3-Fc; not shown: Fc part
T2 sequence (looked up): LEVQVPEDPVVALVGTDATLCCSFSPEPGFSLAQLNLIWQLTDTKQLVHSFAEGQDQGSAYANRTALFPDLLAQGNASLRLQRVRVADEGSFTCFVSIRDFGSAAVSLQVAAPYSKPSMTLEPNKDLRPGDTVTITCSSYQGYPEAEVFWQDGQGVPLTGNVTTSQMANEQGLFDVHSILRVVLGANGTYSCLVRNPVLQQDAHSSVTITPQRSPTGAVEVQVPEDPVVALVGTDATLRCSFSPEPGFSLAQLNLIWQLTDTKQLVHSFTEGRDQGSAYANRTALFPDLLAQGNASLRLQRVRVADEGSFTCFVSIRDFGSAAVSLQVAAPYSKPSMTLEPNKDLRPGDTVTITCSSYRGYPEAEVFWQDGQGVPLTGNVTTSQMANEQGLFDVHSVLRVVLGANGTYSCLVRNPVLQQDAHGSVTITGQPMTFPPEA
Method: FIG. 13: Kinetics of RWG4 on human B7H3-Fc. The association/dissociation properties of RWG4 were measured on the Octet system (Creative Biolabs) using recombinant human B7H3-Fc protein.
(§1) The association/dissociation properties of RWC4 and RWG4 were measured on the Octet system (Creative Biolabs) using either recombinant human B7H3-Fc protein or recombinant mouse B7H3-His protein.

HN3-Fc = assay: ELISA; row HN3-Fc; well 2 of 3
Outline: (§2)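 The values are ELISA signals for binding of purified camel VHH nanobodies to immobilised recombinant B7H3 fusion proteins and to non-B7H3 comparison proteins. The nanobodies came from phage panning on recombinant B7H3-Fc.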

hB7H3-His = target: T3, hB7H3-His (human, UniProt Q5ZPR3 29-461, limits assumed); assay: ELISA; row B7H3-his; well 3 of 3
T3 construct: not shown: His tag
T3 sequence (looked up): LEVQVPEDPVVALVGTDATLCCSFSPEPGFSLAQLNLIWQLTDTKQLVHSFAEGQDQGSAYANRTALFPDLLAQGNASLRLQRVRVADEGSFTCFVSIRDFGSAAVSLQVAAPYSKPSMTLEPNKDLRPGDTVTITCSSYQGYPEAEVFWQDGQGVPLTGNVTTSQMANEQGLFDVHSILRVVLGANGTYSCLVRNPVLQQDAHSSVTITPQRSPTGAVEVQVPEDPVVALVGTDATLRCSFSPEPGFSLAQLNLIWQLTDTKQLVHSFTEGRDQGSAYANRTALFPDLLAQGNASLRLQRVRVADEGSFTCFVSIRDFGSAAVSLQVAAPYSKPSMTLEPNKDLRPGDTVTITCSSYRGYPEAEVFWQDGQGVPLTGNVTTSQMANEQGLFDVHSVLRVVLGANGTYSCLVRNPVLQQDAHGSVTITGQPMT
Outline: as §2

PD-L1 = assay: ELISA; row PDL1-Fc; well 1 of 3
Sequence of PD-L1 (Q9NZQ7 whole entry): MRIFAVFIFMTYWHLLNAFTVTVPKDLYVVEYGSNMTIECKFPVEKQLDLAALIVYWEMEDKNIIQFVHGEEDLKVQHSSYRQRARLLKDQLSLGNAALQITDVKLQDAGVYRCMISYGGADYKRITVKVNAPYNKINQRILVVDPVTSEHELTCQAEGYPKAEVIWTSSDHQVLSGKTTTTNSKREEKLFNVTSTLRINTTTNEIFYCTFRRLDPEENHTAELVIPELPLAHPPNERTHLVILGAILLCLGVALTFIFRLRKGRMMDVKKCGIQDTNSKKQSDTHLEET
Outline: as §2

[2] = target: T2, recombinant human B7H3-Fc protein; assay: BLI (Octet), human B7H3-Fc; same value printed for 660, 132 and 26.4 nM
Method: FIG. 12: Kinetics of RWC4 on human B7H3-Fc. The association/dissociation properties of RWC4 were measured on the Octet system (Creative Biolabs) using recombinant human B7H3-Fc protein.
as §1

Row | Binder | ELISA signal (mouse B7H3-His) | Kd [1] | koff [1] | kon [1] | ELISA reading (name not given) (HN3-Fc) | ELISA reading (name not given) (hB7H3-His) | ELISA reading (name not given) (PD-L1) | Kd [2] | koff [2] | kon [2]
1 | RWG4 (VHH, Camel VHH; tag not described; also called camel antibody RWG4) VHH: QVQLVQSGGGLVQPGGSLRLSCAASGFTFSVYWFYWVRQAPRQGLEWVSTIASNGSTYYSDSVKGRFTISRDNAKNTVYLQMNSLKPEDTAVYYCVSDPDYYSDYERAYKFWAQGTQVTVSS | 0.0665 | 6.94 nM | 6.34e-05 s⁻¹ | 9130 M⁻¹ s⁻¹ | – | – | – | – | – | –
2 | RWG8 (VHH, Camel VHH; tag not described; also called camel antibody RWG8) VHH: DVQLVESGGGLVQPGGSLRLSCAASGFTFSRYWMGWFRQAPGKGVEWVSTINSGGGSTYYADSVKGRFTISRDNAKNTLYLQLNNLKTEDTAMYYCAKEQWRTGSRGQGTQVTVSS | 2.47 | – | – | – | 0.0514 | 0.0636 | 0.0653 | – | – | –
3 | RWC4 (VHH, Camel VHH; tag not described; also called camel antibody RWC4) VHH: EVQLVESGGGSVQAGGSLRLSCVASEDSTSAMCMGWFRQAPGKEREGVACINPTGEVTWYGDSVKGRFTISRDTVKKIVYLQMNSLKPEDTAMYYCAARVTYGGDWSTDTDYEYWGQGTQVTVSS | – | – | – | – | 0.046 | 0.0811 | 0.0625 | 3.8 nM | 0.000101 s⁻¹ | 26500 M⁻¹ s⁻¹
4 | RWB12 (VHH, Camel VHH; tag not described; also called camel antibody RWB12) VHH: QVQLVESGGGSVQVGGSLRLSCAASGFTYNSYSVGWFRQAPGKEREGVAAINSGGSSTYYAASVKGRFTISRDNAKNTVYLQMNSLKPEDTAMYYCAARSPSPLTFQTRTLREDSYNYWGQGTQVTVSS | – | – | – | – | 0.0616 | 0.0946 | 0.0639 | – | – | –
